# Measured values as given in IntAct's records for PubMed 12117771.
# B1: Cadherin-related family member 2 (Homo sapiens), Q9BYE9 (parent)
# chain: MAQLWLSCFLLPALVVSVAANVAPKFLANMTSVILPEDLPVGAQAFWLVAEDQDNDPLTYGMSGPNAYFFAVTPKTGEVKLASALDYETLYTFKVTISVSDPYIQVQREMLVIVEDRNDNAPVFQNTAFSTSINETLPVGSVVFSVLAVDKDMGSAGMVVYSIEKVIPSTGDSEHLFRILANGSIVLNGSLSYNNKSAFYQLELKACDLGGMYHNTFTIQCSLPVFLSISVVDQPDLDPQFVREFYSASVAEDAAKGTSVLTVEAVDGDKGINDPVIYSISYSTRPGWFDIGADGVIRVNGSLDREQLLEADEEVQLQVTATETHLNIYGQEAKVSIWVTVRVMDVNDHKPEFYNCSLPACTFTPEEAQVNFTGYVDEHASPRIPIDDLTMVVYDPDKGSNGTFLLSLGGPDAEAFSVSPERAVGSASVQVLVRVSALVDYERQTAMAVQVVATDSVSQNFSVAMVTIHLRDINDHRPTFPQSLYVLTVPEHSATGSVVTDSIHATDPDTGAWGQITYSLLPGNGADLFQVDPVSGTVTVRNGELLDRESQAVYYLTLQATDGGNLSSSTTLQIHLLDINDNAPVVSGSYNIFVQEEEGNVSVTIQAHDNDEPGTNNSRLLFNLLPGPYSHNFSLDPDTGLLRNLGPLDREAIDPALEGRIVLTVLVSDCGEPVLGTKVNVTITVEDINDNLPIFNQSSYNFTVKEEDPGVLVGVVKAWDADQTEANNRISFSLSGSGANYFMIRGLVLGAGWAEGYLRLPPDVSLDYETQPVFNLTVSAENPDPQGGETIVDVCVNVKDVNDNPPTLDVASLRGIRVAENGSQHGQVAVVVASDVDTSAQLEIQLVNILCTKAGVDVGSLCWGWFSVAANGSVYINQSKAIDYEACDLVTLVVRACDLATDPGFQAYSNNGSLLITIEDVNDNAPYFLPENKTFVIIPELVLPNREVASVRARDDDSGNNGVILFSILRVDFISKDGATIPFQGVFSIFTSSEADVFAGSIQPVTSLDSTLQGTYQVTVQARDRPSLGPFLEATTTLNLFTVDQSYRSRLQFSTPKEEVGANRQAINAALTQATRTTVYIVDIQDIDSAARARPHSYLDAYFVFPNGSALTLDELSVMIRNDQDSLTQLLQLGLVVLGSQESQESDLSKQLISVIIGLGVALLLVLVIMTMAFVCVRKSYNRKLQAMKAAKEARKTAAGVMPSAPAIPGTNMYNTERANPMLNLPNKDLGLEYLSPSNDLDSVSVNSLDDNSVDVDKNSQEIKEHRPPHTPPEPDPEPLSVVLLGRQAGASGQLEGPSYTNAGLDTTDL
# Variants of: B1
# Conditions: with mast2_human MAST2, Q6P0Q8
# Sequence of mast2_human MAST2, Q6P0Q8 (Q6P0Q8 whole entry): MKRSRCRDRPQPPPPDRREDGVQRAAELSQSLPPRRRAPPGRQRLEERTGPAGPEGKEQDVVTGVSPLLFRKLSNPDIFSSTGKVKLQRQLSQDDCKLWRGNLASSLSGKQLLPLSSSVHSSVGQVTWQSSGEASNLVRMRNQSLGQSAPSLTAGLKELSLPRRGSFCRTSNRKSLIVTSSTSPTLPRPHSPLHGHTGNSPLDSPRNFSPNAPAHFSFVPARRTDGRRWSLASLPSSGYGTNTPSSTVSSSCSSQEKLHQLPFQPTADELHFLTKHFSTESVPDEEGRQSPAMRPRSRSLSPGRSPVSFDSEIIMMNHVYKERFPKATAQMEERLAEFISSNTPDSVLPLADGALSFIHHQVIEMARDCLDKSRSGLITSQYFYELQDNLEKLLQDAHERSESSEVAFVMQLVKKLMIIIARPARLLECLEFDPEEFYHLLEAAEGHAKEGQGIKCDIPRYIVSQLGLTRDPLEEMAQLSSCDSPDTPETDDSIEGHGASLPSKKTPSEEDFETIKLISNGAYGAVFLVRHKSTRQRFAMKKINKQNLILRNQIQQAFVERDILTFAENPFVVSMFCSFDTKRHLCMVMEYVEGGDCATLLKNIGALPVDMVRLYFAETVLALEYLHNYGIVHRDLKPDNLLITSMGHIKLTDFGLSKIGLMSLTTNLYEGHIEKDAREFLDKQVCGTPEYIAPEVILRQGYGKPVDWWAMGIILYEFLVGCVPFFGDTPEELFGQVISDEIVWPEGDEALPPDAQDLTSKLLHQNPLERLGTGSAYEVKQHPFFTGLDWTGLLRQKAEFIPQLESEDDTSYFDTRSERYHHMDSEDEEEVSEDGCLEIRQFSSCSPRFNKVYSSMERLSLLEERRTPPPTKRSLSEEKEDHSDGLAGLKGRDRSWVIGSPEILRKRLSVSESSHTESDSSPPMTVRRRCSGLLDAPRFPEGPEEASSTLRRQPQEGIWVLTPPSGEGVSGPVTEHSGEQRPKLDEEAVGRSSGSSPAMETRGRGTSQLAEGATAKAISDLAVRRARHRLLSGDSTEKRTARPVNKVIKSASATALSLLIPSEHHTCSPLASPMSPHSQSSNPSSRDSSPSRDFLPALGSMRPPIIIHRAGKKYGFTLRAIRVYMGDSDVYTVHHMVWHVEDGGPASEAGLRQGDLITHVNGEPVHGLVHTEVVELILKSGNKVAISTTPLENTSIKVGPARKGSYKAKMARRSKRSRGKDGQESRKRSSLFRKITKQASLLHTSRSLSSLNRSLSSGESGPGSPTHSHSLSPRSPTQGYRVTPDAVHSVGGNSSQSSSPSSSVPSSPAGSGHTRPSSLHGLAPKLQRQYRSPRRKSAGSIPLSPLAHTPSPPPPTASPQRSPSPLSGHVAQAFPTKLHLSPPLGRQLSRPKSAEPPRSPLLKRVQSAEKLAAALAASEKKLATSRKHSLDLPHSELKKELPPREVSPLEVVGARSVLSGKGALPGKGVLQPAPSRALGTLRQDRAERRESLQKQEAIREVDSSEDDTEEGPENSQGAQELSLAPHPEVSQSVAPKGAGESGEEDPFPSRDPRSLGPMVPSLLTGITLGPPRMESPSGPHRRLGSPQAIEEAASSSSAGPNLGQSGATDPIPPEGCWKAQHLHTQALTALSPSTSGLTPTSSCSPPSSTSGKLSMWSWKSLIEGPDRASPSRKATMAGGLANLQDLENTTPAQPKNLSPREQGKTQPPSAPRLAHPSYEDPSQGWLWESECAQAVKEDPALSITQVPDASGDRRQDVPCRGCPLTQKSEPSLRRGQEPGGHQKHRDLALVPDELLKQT
row,effect of a mutation on the interaction,Variant
1,decreasing interaction,L1310R
